Experimental data: US20180312579A1 (Genentech, published 2018)
Residue numbers refer to the chain shown, from its start. One block for each binder: values may come before it.

Key:
mouse RSPO2 [1] = biological target: T1, mouse RSPO2 (mouse, UniProt Q8BFU0 22-205, limits assumed); assay: SPR (Biacore) with the Fab; table row RSPO2, Affinity (nM) Fab
T1 construct: also called mRSPO2
Experimental: (§1) For kinetic measurements, two-fold serial dilutions of anti-RSPO Fabs were injected in HBS-P buffer (0.01M HEPES pH 7.4, 0.15M NaCl, 0.005% surfactant P20) at 25° C. with a flow rate of 30 μl/min. Association rates (kₒₙ) and dissociation rates (koff) were calculated using a simple one-to-one Langmuir binding model (BIAcore Evaluation Software version 3.2). The equilibrium dissociation constant (KD) was calculated as the ratio koff/kₒₙ.
(§2) Surface plasmon resonance was used to confirm binding specificities and affinities to human, mouse, and cynomolgus RSPOs. Fab fragments from antibody clones were digested, purified, and then assayed using a BIAcore™-2000 instrument for binding to recombinant proteins. Antibodies fell into three groups: those specific to RSPO2, those specific to RSPO3, and those with some degree of cross-reactivity (FIG. 5).

recombinant human RSPO3 [2] = biological target: T2, recombinant human RSPO3 (human, UniProt Q9BXY4 22-272); assay: SPR (Biacore) with the Fab; table row RSPO3, Affinity (nM) Fab
T2 construct: also called rhRSPO3; hRSPO3
T2 sequence: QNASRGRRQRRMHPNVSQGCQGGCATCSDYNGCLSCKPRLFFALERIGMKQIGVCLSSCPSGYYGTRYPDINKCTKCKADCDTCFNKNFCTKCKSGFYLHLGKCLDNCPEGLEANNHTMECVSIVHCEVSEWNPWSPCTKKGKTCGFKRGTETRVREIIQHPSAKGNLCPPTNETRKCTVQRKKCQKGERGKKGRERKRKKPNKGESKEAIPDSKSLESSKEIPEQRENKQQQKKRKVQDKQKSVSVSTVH
Experimental: as §1, §2

cynomolgus RSPO3 [3] = biological target: T3, cynomolgus RSPO3 (cynomolgus, UniProt A0A2K5UTQ7 22-273); assay: as above
T3 construct: also called cynoRSPO3; rcynoRSPO3
T3 sequence: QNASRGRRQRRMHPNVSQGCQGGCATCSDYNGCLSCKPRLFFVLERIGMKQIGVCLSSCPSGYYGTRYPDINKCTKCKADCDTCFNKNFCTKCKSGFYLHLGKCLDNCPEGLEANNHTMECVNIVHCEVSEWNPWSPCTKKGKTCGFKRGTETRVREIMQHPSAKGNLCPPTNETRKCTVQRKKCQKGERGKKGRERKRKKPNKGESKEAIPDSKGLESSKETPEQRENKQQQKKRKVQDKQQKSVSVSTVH
Experimental: as §1, §2

mouse RSPO3 [4] = biological target: T4, mouse RSPO3 (mouse, UniProt Q2TJ95 22-277, limits assumed); assay: as above
T4 construct: also called mRSPO3; murine RSPO3
T4 sequence (looked up): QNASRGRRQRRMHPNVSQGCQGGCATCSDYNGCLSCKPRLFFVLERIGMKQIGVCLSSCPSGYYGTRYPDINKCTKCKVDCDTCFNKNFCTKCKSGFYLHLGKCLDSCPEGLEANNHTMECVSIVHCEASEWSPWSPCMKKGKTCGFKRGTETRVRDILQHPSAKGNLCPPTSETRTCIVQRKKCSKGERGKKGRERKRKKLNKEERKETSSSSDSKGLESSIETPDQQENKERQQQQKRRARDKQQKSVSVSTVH
Experimental: as §1, §2

[5] = biological target: T5, human RSPO3 with C-terminal HA tag, stably expressed in 293 cells (human, UniProt Q9BXY4 22-272); assay: IHC, FFPE 293 cell pellet, RSPO3 Hi
T5 construct: Whole open reading frame expressed in HEK-293 cells (high, medium, low); FFPE pellets; also called hRSPO3; RSPO3 Hi
T5 sequence: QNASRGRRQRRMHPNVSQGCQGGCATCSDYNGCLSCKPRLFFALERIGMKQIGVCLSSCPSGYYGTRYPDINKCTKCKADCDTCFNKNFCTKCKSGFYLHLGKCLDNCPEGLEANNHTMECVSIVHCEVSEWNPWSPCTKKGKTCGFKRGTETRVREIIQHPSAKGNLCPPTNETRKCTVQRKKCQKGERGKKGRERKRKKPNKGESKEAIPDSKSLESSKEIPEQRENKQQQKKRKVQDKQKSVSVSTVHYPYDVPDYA

[6] = biological target: T5, human RSPO3 with C-terminal HA tag, …; assay: IHC, FFPE 293 cell pellet, RSPO3 Low
[7] = biological target: T5, human RSPO3 with C-terminal HA tag, …; assay: IHC, FFPE 293 cell pellet, RSPO3 Med
[8] = biological target: T6, human RSPO1 with C-terminal HA tag, stably expressed in 293 cells (human, UniProt Q2MKA7 21-263); assay: IHC, FFPE 293 cell pellet, RSPO1 Hi; - = not significant staining
T6 construct: also called hRSPO1; RSPO1 Hi

[9] = biological target: T7, human RSPO4 with C-terminal HA tag, stably expressed in 293 cells (human, UniProt Q2I0M5 20-234); assay: IHC, FFPE 293 cell pellet, RSPO4 Hi; - = not significant staining
T7 construct: also called hRSPO4; RSPO4 Hi

[10] = biological target: T8, FLAG-tagged human RSPO3 (Genentech) (human, UniProt Q9BXY4 22-272); assay: competitive binding ELISA: antibody titrated against LGR4-Fc (LGR4-ECD) binding to plate-coated hRSPO3; signal = bound LGR4-Fc, OD(450/630)/OD no antibody
T8 construct: also called hRSPO3; RSPO3 coated plates; not shown: FLAG tag
T8 sequence: T2 sequence
Experimental: To measure the activity of anti-RSPO antibodies in blocking the binding of LGR4 and -5 ECDs to RSPOs, MaxiSorp 384-well microwell plates (Thermo Scientific Nunc, Roskilde, Denmark) were coated with 25 ul/well of 0.5 μg/ml hRSPO2 or hRSPO3 (Genentech) in 50 mM carbonate buffer, pH 9.6, overnight at 4° C. Plates were blocked with at 80 ul/well of 0.5% bovine serum albumin, 15 parts per million Proclin 300 in phosphate buffered saline (PBS), pH 7.4, for 1 hour. Serially diluted anti-RSPO antibodies ([…] in […] serial dilution plus buffer blank) containing 0.1 μg/ml LGR4-Fc or 0.015 μg/ml LGR5-Fc in assay buffer (0.5% BSA, 0.05% polysorbate 20, 15 parts per million Proclin 300 in PBS) were added to the plates at 25 ul/well. After a 2-hour incubation, LGR4-Fc and LGR5-Fc bound to the plates were detected using peroxidase labeled goat F(ab′)2 anti-human Fc (Jackson ImmunoResearch, West Grove, Pa.). After a 1 hour incubation, the substrate 3,3′,5,5′-tetramethyl benzidine (Moss Inc., Pasadena, Md.) was added to the plates and the reaction was stopped by adding 1 M phosphoric acid. Plates were washed with PBS, pH 7.4, containing 0.05% tween 20, between steps and all the incubation steps following the coating step were performed at room temperature on an orbital shaker. Absorbance was read at 450 nm on a multiskan Ascent reader (Thermo Scientific, Hudson, N.H.).

recombinant human RSPO3 [11] = biological target: T2, recombinant human RSPO3; assay: SPR, BIAcore T200, huRSPO3 immobilized, antibody injected
Experimental: The binding affinity of the antibodies in this section was determined by BIAcore™ T200 Format. Briefly, BIAcore™ research grade CMS chips were activated with 1-ethyl-3-(3-dimethylaminopropyl) carbodiimide (EDC) and N-hydroxysuccinimide (NETS) reagents according to the supplier's instructions. huRSPO3 was immobilized to achieve approximately 50 response units (RU) in each flow cell. Unreacted coupling groups were blocked with 1M ethanolamine. For kinetics measurements, Four-fold serial dilutions of variant antibody was injected in HBS-P buffer (0.01M HEPES pH7.4, 0.15M NaCl, 0.005% surfactant P20) at 25° C. with a flow rate of 30 μl/min. Association rates (kon) and dissociation rates (koff) were calculated using a 1:1 Langmuir binding model (BIAcore™ T200 Evaluation Software version 2.0). The equilibrium dissociation constant (Kd) was calculated as the ratio koff/kon.

recombinant human RSPO2 = recombinant human RSPO2 (human, UniProt Q6UXX9 22-243); assay: cell-based or functional assay
recombinant human RSPO3 [12] = biological target: T2, recombinant human RSPO3; assay: cell-based or functional assay
cynomolgus RSPO3 [13] = biological target: T3, cynomolgus RSPO3; assay: cell-based or functional assay
mouse RSPO3 [14] = biological target: T4, mouse RSPO3; assay: cell-based or functional assay
cynomolgus RSPO2 = cynomolgus RSPO2 (cynomolgus, UniProt G7PCH9 22-243); assay: cell-based or functional assay
mouse RSPO2 [15] = biological target: T1, mouse RSPO2; assay: cell-based or functional assay

T1 sequence (Q8BFU0 22-205 limits assumed): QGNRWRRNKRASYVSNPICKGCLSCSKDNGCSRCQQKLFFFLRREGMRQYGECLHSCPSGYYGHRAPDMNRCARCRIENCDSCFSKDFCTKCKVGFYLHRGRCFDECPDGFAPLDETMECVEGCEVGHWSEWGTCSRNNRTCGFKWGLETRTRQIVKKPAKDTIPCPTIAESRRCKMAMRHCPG
T6 sequence (Q2MKA7 other isoform, or with tags, fused parts or gaps limits assumed): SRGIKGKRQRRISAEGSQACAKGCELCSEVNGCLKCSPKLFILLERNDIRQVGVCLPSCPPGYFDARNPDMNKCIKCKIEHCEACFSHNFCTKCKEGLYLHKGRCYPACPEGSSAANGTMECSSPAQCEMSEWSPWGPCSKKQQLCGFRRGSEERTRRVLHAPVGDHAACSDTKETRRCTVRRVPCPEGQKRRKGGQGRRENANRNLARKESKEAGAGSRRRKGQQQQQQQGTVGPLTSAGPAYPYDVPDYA
T7 sequence (Q2I0M5 other isoform, or with tags, fused parts or gaps limits assumed): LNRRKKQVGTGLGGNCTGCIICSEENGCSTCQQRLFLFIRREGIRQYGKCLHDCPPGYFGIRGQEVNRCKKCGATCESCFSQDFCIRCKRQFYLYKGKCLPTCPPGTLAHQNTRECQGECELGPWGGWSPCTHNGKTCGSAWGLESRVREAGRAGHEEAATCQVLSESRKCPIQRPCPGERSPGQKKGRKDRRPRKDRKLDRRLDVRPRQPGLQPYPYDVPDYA
Sequence of recombinant human RSPO2 (Q6UXX9 22-243): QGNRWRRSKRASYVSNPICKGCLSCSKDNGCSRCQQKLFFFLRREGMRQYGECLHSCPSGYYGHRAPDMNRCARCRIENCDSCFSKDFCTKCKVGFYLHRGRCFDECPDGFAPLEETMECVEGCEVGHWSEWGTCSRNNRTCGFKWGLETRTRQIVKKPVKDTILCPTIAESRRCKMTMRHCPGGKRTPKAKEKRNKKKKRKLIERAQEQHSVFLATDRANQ
Sequence of cynomolgus RSPO2 (G7PCH9 entry or part of it): as the sequence (Q6UXX9 22-243) above, with V160A, L165P, T178A counted along it

binding result (mouse RSPO2 [1]): no binding
Kd (recombinant human RSPO3 [2]): 0.073 nM
Kd (cynomolgus RSPO3 [3]): 1.9 nM
Kd (mouse RSPO3 [4]): 3.36 nM
B1: Fab 5D6 (Fab, V domains shown)
VH: EVQLQESGPSLVKPSQTLSLTCSVTGDSITSGYWNWIRKFPGNKFEYMGYISYSGKTYQNPSLKSRISITRDTSKNQYHLQLNSVTTEDTATYYCATYYGYGGPWFAYWGQGTLVTVSA
VL: DIVLTQSPSSMYASLGERVTITCKASQDIDSYLSWFQQKPGKSPKTLIYLTNRLVDGVPSRFSGSGSGQDYSLTISSLEYEDMGIYYCLHYDEFPLTFGAGTKLEIK
notes: Fab expressed in E. coli for crystallography; also called 5D6 Fab

binding result (mouse RSPO2 [1]): no binding
Kd (recombinant human RSPO3 [2]): 9.5 nM
Kd (cynomolgus RSPO3 [3]): 6.4 nM
Kd (mouse RSPO3 [4]): 6.8 nM
B4: 4H1 (Fab, V domains shown)
VH: EVKLVESGGGFVKPGGSLKLSCAASGFTFSNFAMSWVRQSPEKRLEWVAEINNGGNYAYYQDTVTGRFTISRDNAKNTLYLEMSSLRSEDTAMYFCAREDYVNYEAYFAYWGQGTTLTVSS
VL: SIVMTQTPLSLPVSLGDQASISCRSSQSIVHSNGNTYLEWYLQKPGQSPKLLIYRISNRFSGVPDRFSGSGSGTDFTLKISRVEAEDLGVYYCFQGSHVPYTFGGGTKLEIK
notes: also called Fab of 4H1; 4H1 Fab

binding result (mouse RSPO2 [1]): no binding
Kd (recombinant human RSPO3 [2]): 67 nM
B6: 6E9 (Fab, V domains shown)
VH: QVQLKESGPGLVQPSQSLSITCTVSGFSLTSYGVHWVRQSPGKGLEWLGVIWSGGSTDYNAAFISRLSISKDNSKSQVFFKMNSLQANDTAIYYCARNDGYYYFDYWGQGTTLTVSS
VL: DIKMTQSTSSLSASLGDRVTISCRASQDISNYLNWYQQKPDGTVKLLIYYTSRLHSGVPSRFSGSGSGTDYSLTISNLEQEDIATYFCQQGDTLPPAFGGGTKLEIK
notes: also called Fab of 6E9; 6E9 Fab

Continued, binder first:

B2: 21C2 (antibody, V domains shown)
VH: QVQLQQSGAELVRPGVSVKISCKGSGYTFTDYVIHWVKQSHAKSLEWIGVITTYYGDASYNQKFKGKATMTVDKSSSTAYMELARLTSEDSAIYYCARGAYGNSPSYWYFDVWGAGTSVTVSS
VL: DIVLTQSPASLTVSLGQRATISCRASESVDSYGNTFMHWYQQKPGQPPKLLIYLASNLESGVPARFSGSGSRTDFTLTIDPVEADDAATYYCQQNNEDPYTFGGGTKLEIK
notes: also called monoclonal antibody 21C2
percentage of cells staining [5]: 95%
percentage of cells staining [6]: 10%
percentage of cells staining [7]: 60%
binding result [8]: no binding
binding result [9]: no binding
IC50 (read off the curve) [10]: ~0.1 µg/mL

B3: hu5D6v4.3 (Fab, V domains shown)
VH: EVQLVESGPGLVKPSETLSLTCTVSGDSITSGYWNWIRQPPGKGLEWIGYISYSGKTYQNPSLKSRITISRDTSKNQFSLKLSSVTAADTAVYYCATYYGYGGPWFAYWGQGTLVTVSS
VL: DIQMTQSPSSLSASVGDRVTITCKASQDIDSYLSWFQQKPGKAPKTLIYLTNRLVDGVPSRFSGSGSGTDYTLTISSLQPEDFATYYCLHYDEFPLTFGQGTKVEIK
notes: Humanized 5D6 variant; also called v1+T69 (LC)+(W47+I48+F78 (HC))
Kd (recombinant human RSPO3 [11]): 0.07 nM

B5: 5C2 (antibody, V domains shown)
VH: EVQLQESGPGLVAPSQSLSITCTVSGFSLTSYGVHWVRQPPGKGLEWLGVIWTGGSTNYNSALMSRLSISKDNSKSQVFLKMNSLQTDDTAMYYCARVDGYYYFDYWGQGTTLTVSS
VL: B6 VL with K3V, Q80P, A97T
notes: also called monoclonal antibody 5C2
IC50, WNT luciferase reporter, bivalent antibody (recombinant human RSPO2): > 500 nM
IC50, WNT luciferase reporter, bivalent antibody (recombinant human RSPO3 [12]): 0.65 nM
IC50, WNT luciferase reporter, bivalent antibody (cynomolgus RSPO3 [13]): 1.3 nM
IC50, WNT luciferase reporter, bivalent antibody (mouse RSPO3 [14]): 0.47 nM
IC50, WNT luciferase reporter, bivalent antibody (cynomolgus RSPO2): > 500 nM
IC50, WNT luciferase reporter, bivalent antibody (mouse RSPO2 [15]): > 500 nM
percentage of cells staining [5]: > 95%
percentage of cells staining [6]: 40%
percentage of cells staining [7]: 60%
binding result [8]: no binding
binding result [9]: no binding
IC50 (read off the curve) [10]: ~0.1 µg/mL
